Measurements from patent US20100249029A1 (Novo Nordisk, published 2010).
Blank lines part the entries; values can stand above or below the binder they belong to.

How the values were obtained:
[1] = target: T1, Biotinylated prolactin receptor BirATag-Ser-PRLR (1-210) (human, UniProt P16471 25-234, biotinylated (BirA tag, biotin added during expression in E. coli)); assay: SPR (Biacore); biotinylated BirATag-Ser-PRLR (1-210) amine-coupled to CM5 chip, variant injected at 3.13-50 nM; STDEV 0.035
T1 construct: range 1-210; also called BirA-Ser-PRLR (1-210); not shown: BirA tag (biotin acceptor tag)
T1 sequence: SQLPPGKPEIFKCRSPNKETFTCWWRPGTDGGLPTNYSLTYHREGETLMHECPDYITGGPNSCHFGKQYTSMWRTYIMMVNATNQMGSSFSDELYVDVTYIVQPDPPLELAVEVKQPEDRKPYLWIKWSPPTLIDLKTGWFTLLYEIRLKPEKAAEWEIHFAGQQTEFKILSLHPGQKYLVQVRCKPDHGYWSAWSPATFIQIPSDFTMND
Protocol: (§1) Biotinylated prolactin receptor BirATag-Ser-PRLR (1-210) was diluted to 20 μg/ml in 10 mM sodium acetate pH 4.0 (Biacore BR-1003-49) and immobilized on a CM5 chip (Biacore BR-1006-68) with the immobilization reagents 1-ethyl-3-(3-dimethylaminopropyl) carbodiimide hydrochloride (EDC), N-hydroxysuccinimide (NHS) and 1.0 M ethanolamine-HCl pH 8.5 (Biacore BR1000-50). The immobilization level was 1500 RU. The PRL variants prepared as described in Example 5 were diluted to a series of concentrations as following: 3.13/6.25/12.5/25/50 nM and run through the PRLR immobilized chip using HBS-EP (10 mM HEPES pH 7.4; 150 mM NaCl; 3 mM EDTA; 0.005% v/v Tween-20) as the running buffer under the following conditions: […]

[2] = target: T1, Biotinylated prolactin receptor …; assay: SPR (Biacore); biotinylated BirATag-Ser-PRLR (1-210) amine-coupled to CM5 chip, variant injected at 3.13-50 nM; STDEV 0.021
Protocol: as §1

[3] = target: T1, Biotinylated prolactin receptor …; assay: SPR (Biacore); biotinylated BirATag-Ser-PRLR (1-210) amine-coupled to CM5 chip, variant injected at 3.13-50 nM; STDEV 0.18
Protocol: as §1

[4] = target: T1, Biotinylated prolactin receptor …; assay: SPR (Biacore); biotinylated BirATag-Ser-PRLR (1-210) amine-coupled to CM5 chip, variant injected at 3.13-50 nM; STDEV 0.3606
Protocol: as §1

[5] = target: T1, Biotinylated prolactin receptor …; assay: SPR (Biacore); biotinylated BirATag-Ser-PRLR (1-210) amine-coupled to CM5 chip, variant injected at 3.13-50 nM; STDEV 0.0636
Protocol: as §1

[6] = target: T1, Biotinylated prolactin receptor …; assay: SPR (Biacore); biotinylated BirATag-Ser-PRLR (1-210) amine-coupled to CM5 chip, variant injected at 3.13-50 nM; STDEV 0.057
Protocol: as §1

[7] = target: T1, Biotinylated prolactin receptor …; assay: SPR (Biacore); biotinylated BirATag-Ser-PRLR (1-210) amine-coupled to CM5 chip, variant injected at 3.13-50 nM; STDEV 0.085
Protocol: as §1

[8] = target: T1, Biotinylated prolactin receptor …; assay: SPR (Biacore); biotinylated BirATag-Ser-PRLR (1-210) amine-coupled to CM5 chip, variant injected at 3.13-50 nM; STDEV 0.049
Protocol: as §1

[9] = target: T1, Biotinylated prolactin receptor …; assay: SPR (Biacore); biotinylated BirATag-Ser-PRLR (1-210) amine-coupled to CM5 chip, variant injected at 3.13-50 nM; STDEV 0.11
Protocol: as §1

[10] = target: T1, Biotinylated prolactin receptor …; assay: SPR (Biacore); biotinylated BirATag-Ser-PRLR (1-210) amine-coupled to CM5 chip, variant injected at 3.13-50 nM; STDEV 0.1273
Protocol: as §1

[11] = target: T1, Biotinylated prolactin receptor …; assay: SPR (Biacore); biotinylated BirATag-Ser-PRLR (1-210) amine-coupled to CM5 chip, variant injected at 3.13-50 nM; STDEV 0.2546
Protocol: as §1

[12] = target: T1, Biotinylated prolactin receptor …; assay: SPR (Biacore); biotinylated BirATag-Ser-PRLR (1-210) amine-coupled to CM5 chip, variant injected at 3.13-50 nM; STDEV 0.064
Protocol: as §1

B1: PRL S61A, D68N, G71A, Q73A, G129R, K190R (ligand)
chain: LPICPGGAARCQVTLRDLFDRAVVLSHYIHNLSSEMFSEFDKRYTHGRGFITKAINSCHTASLATPENKEAAAQMNQKDFLSLIVSILRSWNEPLYHLVTEVRGMQEAPEAILSKAVEIEEQTKRLLERMELIVSQVHPETKENEIYPVWSGLPSLQMADEESRLSAYYNLLHCLRRDSHKIDNYLKLLRCRIIHNNNC
notes: Printed without the prefix Ser-. 'G71A' is copied as printed
Kd [1]: 1.7 nM

B2: Ser-PRL D68N, E70K, Q73L, G129R, K190R (ligand)
chain: SLPICPGGAARCQVTLRDLFDRAVVLSHYIHNLSSEMFSEFDKRYTHGRGFITKAINSCHTSSLATPENKKQALQMNQKDFLSLIVSILRSWNEPLYHLVTEVRGMQEAPEAILSKAVEIEEQTKRLLERMELIVSQVHPETKENEIYPVWSGLPSLQMADEESRLSAYYNLLHCLRRDSHKIDNYLKLLRCRIIHNNNC
Kd [2]: 1.2 nM

B4: Ser-PRL N31R, G129R, K190R (ligand)
chain: SLPICPGGAARCQVTLRDLFDRAVVLSHYIHRLSSEMFSEFDKRYTHGRGFITKAINSCHTSSLATPEDKEQAQQMNQKDFLSLIVSILRSWNEPLYHLVTEVRGMQEAPEAILSKAVEIEEQTKRLLERMELIVSQVHPETKENEIYPVWSGLPSLQMADEESRLSAYYNLLHCLRRDSHKIDNYLKLLRCRIIHNNNC
Kd [4]: 2.01 nM

B6: Ser-PRL D68N, Q73L, G129R, K190R (ligand)
chain: SLPICPGGAARCQVTLRDLFDRAVVLSHYIHNLSSEMFSEFDKRYTHGRGFITKAINSCHTSSLATPENKEQALQMNQKDFLSLIVSILRSWNEPLYHLVTEVRGMQEAPEAILSKAVEIEEQTKRLLERMELIVSQVHPETKENEIYPVWSGLPSLQMADEESRLSAYYNLLHCLRRDSHKIDNYLKLLRCRIIHNNNC
Kd [6]: 1.2 nM

B9: Ser-PRL G129R, K190R (ligand)
chain: SLPICPGGAARCQVTLRDLFDRAVVLSHYIHNLSSEMFSEFDKRYTHGRGFITKAINSCHTSSLATPEDKEQAQQMNQKDFLSLIVSILRSWNEPLYHLVTEVRGMQEAPEAILSKAVEIEEQTKRLLERMELIVSQVHPETKENEIYPVWSGLPSLQMADEESRLSAYYNLLHCLRRDSHKIDNYLKLLRCRIIHNNNC
Kd [9]: 5.1 nM

B11: Ser-PRL N31E, G129R, K190R (ligand)
chain: SLPICPGGAARCQVTLRDLFDRAVVLSHYIHELSSEMFSEFDKRYTHGRGFITKAINSCHTSSLATPEDKEQAQQMNQKDFLSLIVSILRSWNEPLYHLVTEVRGMQEAPEAILSKAVEIEEQTKRLLERMELIVSQVHPETKENEIYPVWSGLPSLQMADEESRLSAYYNLLHCLRRDSHKIDNYLKLLRCRIIHNNNC
Kd [11]: 2.7 nM

B12: Ser-PRL S33A Q73L G129R K190R (ligand)
chain: SLPICPGGAARCQVTLRDLFDRAVVLSHYIHNLASEMFSEFDKRYTHGRGFITKAINSCHTSSLATPEDKEQALQMNQKDFLSLIVSILRSWNEPLYHLVTEVRGMQEAPEAILSKAVEIEEQTKRLLERMELIVSQVHPETKENEIYPVWSGLPSLQMADEESRLSAYYNLLHCLRRDSHKIDNYLKLLRCRIIHNNNC
Kd [12]: 5 nM

Further lines, results first:

Kd [3]: 2.8 nM
B3: Ser-PRL S38I, D68N, G129R, I182V (ligand)
chain: SLPICPGGAARCQVTLRDLFDRAVVLSHYIHNLSSEMFIEFDKRYTHGRGFITKAINSCHTSSLATPENKEQAQQMNQKDFLSLIVSILRSWNEPLYHLVTEVRGMQEAPEAILSKAVEIEEQTKRLLERMELIVSQVHPETKENEIYPVWSGLPSLQMADEESRLSAYYNLLHCLRRDSHKVDNYLKLLKCRIIHNNNC

Kd [5]: 0.3 nM
B5: Ser-PRL S38I, S61A, D68N, Q73L, G129R, K190R (ligand)
chain: SLPICPGGAARCQVTLRDLFDRAVVLSHYIHNLSSEMFIEFDKRYTHGRGFITKAINSCHTASLATPENKEQALQMNQKDFLSLIVSILRSWNEPLYHLVTEVRGMQEAPEAILSKAVEIEEQTKRLLERMELIVSQVHPETKENEIYPVWSGLPSLQMADEESRLSAYYNLLHCLRRDSHKIDNYLKLLRCRIIHNNNC

Kd [7]: 1.1 nM
B7: Ser-PRL S61A, D68N, Q73L, G129R, K190R (ligand)
chain: SLPICPGGAARCQVTLRDLFDRAVVLSHYIHNLSSEMFSEFDKRYTHGRGFITKAINSCHTASLATPENKEQALQMNQKDFLSLIVSILRSWNEPLYHLVTEVRGMQEAPEAILSKAVEIEEQTKRLLERMELIVSQVHPETKENEIYPVWSGLPSLQMADEESRLSAYYNLLHCLRRDSHKIDNYLKLLRCRIIHNNNC

Kd [8]: 1.3 nM
B8: Ser-PRL S61A, Q73L, G129R, K190R (ligand)
chain: SLPICPGGAARCQVTLRDLFDRAVVLSHYIHNLSSEMFSEFDKRYTHGRGFITKAINSCHTASLATPEDKEQALQMNQKDFLSLIVSILRSWNEPLYHLVTEVRGMQEAPEAILSKAVEIEEQTKRLLERMELIVSQVHPETKENEIYPVWSGLPSLQMADEESRLSAYYNLLHCLRRDSHKIDNYLKLLRCRIIHNNNC

Kd [10]: 2.3 nM
B10: Ser-PRL S61A, D68N, G129R, K190R (ligand)
chain: SLPICPGGAARCQVTLRDLFDRAVVLSHYIHNLSSEMFSEFDKRYTHGRGFITKAINSCHTASLATPENKEQAQQMNQKDFLSLIVSILRSWNEPLYHLVTEVRGMQEAPEAILSKAVEIEEQTKRLLERMELIVSQVHPETKENEIYPVWSGLPSLQMADEESRLSAYYNLLHCLRRDSHKIDNYLKLLRCRIIHNNNC
